From US20040023858A1, “Antifungal combination therapy” (priority 2000, published 2004)

B1: G-CSF: granulocyte colony stimulating factor, stimulates the production of white blood cells (protein, UniProt P09919 31-207, looked up)
Granulocyte …: TPLGPASSLPQSFLLKCLEQVRKIQGDGAALQEKLVSECATYKLCHPEELVLLGHSLGIPWAPLSSCPSQALQLAGCLSQLHSGLFLYQGLLQALEGISPELGPTLDTLQLDVADFATTIWQQMEELGMAPALQPTQGAMPAFASAFQRRAGGVLVASHLQSFLEVSYRVLRHLAQP

System: Candida albicans FP633
Assay: Survival of neutropenic mice with disseminated candidiasis (G-CSF and Test Compound, alone and combined)
Type: in vivo, ICR mice
Conditions: C. albicans, day 6 after infection
Method: Disseminated candidiasis were induced in ICR mice by the intravenous inoculation of 0.2 ml of cell suspension of Candida albicans FP633 via their lateral tail veins. Cyclophosphamide was administered intraperitoneally at 200 mg/kg 4 days before and 1 day after infection. G-CSF was administered intraperitoneally once daily for 5 days starting at 3 days before infection. Test Compound was administered once daily for 4 days starting at 1 hour after infection by intravenous injection. The survival rate (%) was calculated at 6 days after infection.
1) Survival rate of neutropenic mice infected with C. albicans on day 6 after infection

Molecule	Survival rate (Test Compound 0.2 mg/kg i.v. once daily for 4 days, G-CSF 0 μg/kg, cyclophosphamide-treated neutropenic ICR mice) [%]	Survival rate (G-CSF 2.5 μg/kg i.p. once daily for 5 days, Test Compound 0 mg/kg, neutropenic ICR mice) [%]	Survival rate (G-CSF 5 μg/kg i.p. once daily for 5 days, Test Compound 0 mg/kg, neutropenic ICR mice) [%]	Survival rate (G-CSF 10 μg/kg i.p. once daily for 5 days, Test Compound 0 mg/kg, neutropenic ICR mice) [%]
CCCCCOc1ccc(-c2cc(-c3ccc(C(=O)NC4CC(O)C(O)NC(=O)C5C(O)C(C)CN5C(=O)C(C(O)CC(N)=O)NC(=O)C(C(O)C(O)c5ccc(O)c(OS(=O)(=O)[O-])c5)NC(=O)C5CC(O)CN5C(=O)C(C(C)O)NC4=O)cc3)no2)cc1.[Na+] (stereo not shown) [Test Compound]	25			
B1		0	25	50
